The source of these data is US20220267464A1.

Where two headings read alike, the source gives them in different places.

Assay [1] addresses human 4-1BB on Jurkat-hu4-1BB-NFκB-luc2 reporter cells (human) (UniProt Q07011). In words: cell-based or functional assay. Also on record: AUC of activation curve, Jurkat-hu4-1BB-NFκB-luc2, no CEA+ cells / AUC of activation curve, Jurkat-hu4-1BB-NFκB-luc2 with CHO-k1-cyno CEACAM5 clone 8: unit not given beside the values.
Assay [2] concerns the target human CEACAM5 (carcinoembryonic antigen, CEA) on cells (human) (UniProt P06731). In words: cell-based or functional assay.
The target in assay [3] is cynomolgus monkey CEACAM5 on CHO-k1-cynoCEACAM5 clone 8 cells (cynomolgus monkey). In words: cell-based or functional assay. Set-up: AUC of activation curve, Jurkat-hu4-1BB-NFκB-luc2, no CEA+ cells / AUC of activation curve, Jurkat-hu4-1BB-NFκB-luc2 with CHO-k1-cyno CEACAM5 clone 8: unit not given beside the values.
Assay [4] has as its target human CEACAM5 (carcinoembryonic antigen, CEA) on cells (human) (UniProt P06731). In words: cell-based or functional assay. Also on record: AUC of activation curve, Jurkat-hu4-1BB-NFκB-luc2, no CEA+ cells / AUC of activation curve, Jurkat-hu4-1BB-NFκB-luc2 with CHO-k1-cyno CEACAM5 clone 8: unit not given beside the values.
Assay [5] deals with cynomolgus monkey CEACAM5 on CHO-k1-cynoCEACAM5 clone 8 cells (cynomolgus monkey). In words: flow cytometry, CHO-k1-cynoCEACAM5 clone 8. Set-up: unit not given beside the values.
Assay [6] deals with human CEACAM5 (carcinoembryonic antigen, CEA) on cells (human) (UniProt P06731). In words: flow cytometry, CHO-k1-huCEACAM5 clone 11. Also on record: unit not given beside the values.
For assay [7] the target is unchanged. In words: flow cytometry, CHO-k1-huCEACAM5 clone 11. Set-up: unit not given beside the values. This is another data set of the same source. (In general: In flow cytometry, cells or beads pass a laser one at a time.)
Assay [8] addresses cynomolgus monkey CEACAM5 on CHO-k1-cynoCEACAM5 clone 8 cells (cynomolgus monkey). Description: flow cytometry, CHO-k1-cynoCEACAM5 clone 8. Set-up: unit not given beside the values. The source holds these as a separate data set.
Assay [9] deals with human CEACAM5 (carcinoembryonic antigen, CEA) on cells (human) (UniProt P06731). Description: flow cytometry, CHO-k1-huCEACAM5 clone 13. Set-up: unit not given beside the values.
For assay [10] the target is unchanged. In words: flow cytometry, CHO-k1-huCEACAM5 clone 12. Also on record: unit not given beside the values.
For assay [11] the target is unchanged. Description: flow cytometry, CHO-k1-huCEACAM5 clone 12. Set-up: unit not given beside the values. This is another data set of the same source.
Assay [12] has the same target. In words: flow cytometry, CHO-k1-huCEACAM5 clone 17. Set-up: unit not given beside the values.
Assay [13] shares this target. In words: flow cytometry, MKN45 cells. Set-up: unit not given beside the values.

Chain of human 4-1BB on Jurkat-hu4-1BB-NFκB-luc2 reporter cells (human) (Q07011 24-255 limits assumed): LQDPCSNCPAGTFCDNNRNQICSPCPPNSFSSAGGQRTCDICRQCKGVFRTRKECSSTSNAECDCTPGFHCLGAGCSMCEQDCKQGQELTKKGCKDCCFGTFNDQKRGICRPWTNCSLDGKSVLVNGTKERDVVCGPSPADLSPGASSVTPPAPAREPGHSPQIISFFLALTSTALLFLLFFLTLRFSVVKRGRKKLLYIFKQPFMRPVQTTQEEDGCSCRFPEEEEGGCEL
Chain of human CEACAM5 (carcinoembryonic antigen, CEA) on cells (human) (P06731 35-685 E398K limits assumed): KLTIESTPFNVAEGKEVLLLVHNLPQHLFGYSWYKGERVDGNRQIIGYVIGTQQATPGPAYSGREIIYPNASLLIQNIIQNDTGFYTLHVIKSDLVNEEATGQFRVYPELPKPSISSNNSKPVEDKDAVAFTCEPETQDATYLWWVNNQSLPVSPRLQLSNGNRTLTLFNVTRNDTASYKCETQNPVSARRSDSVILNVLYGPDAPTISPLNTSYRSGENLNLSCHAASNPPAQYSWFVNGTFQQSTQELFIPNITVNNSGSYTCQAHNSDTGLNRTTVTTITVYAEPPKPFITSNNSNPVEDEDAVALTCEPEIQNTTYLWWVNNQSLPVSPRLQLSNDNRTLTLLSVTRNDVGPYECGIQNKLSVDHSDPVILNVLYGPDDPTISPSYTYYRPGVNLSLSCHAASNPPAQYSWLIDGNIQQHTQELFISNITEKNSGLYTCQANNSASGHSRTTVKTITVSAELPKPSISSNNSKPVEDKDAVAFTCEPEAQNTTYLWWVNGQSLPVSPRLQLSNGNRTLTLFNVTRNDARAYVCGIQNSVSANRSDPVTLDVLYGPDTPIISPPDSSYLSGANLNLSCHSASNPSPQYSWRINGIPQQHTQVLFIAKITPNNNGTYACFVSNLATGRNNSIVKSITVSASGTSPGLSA

Take CEA (MEDI-565)-4-1BBL (Fc fusion): the AUC of activation curve, Jurkat-hu4-1BB-NFκB-luc2, no CEA+ cells in assay [1] stood at 2270.

Take CEA(sm9b)-4-1BBL (Fc fusion): in assay [2], the EC50, NFκB-luciferase in Jurkat-hu4-1BB-NFκB-luc2 with CHO-k1-human CEACAM5 clone 11 stood at 50 pM and the EC50, NFκB-luciferase in Jurkat-hu4-1BB-NFκB-luc2 with CHO-k1-human CEACAM5 clone 12 came out at 30 pM. Further, in assay [3], the AUC of activation curve, Jurkat-hu4-1BB-NFκB-luc2 with CHO-k1-cyno CEACAM5 clone 8 was determined as 3970. In addition, in assay [4], the AUC of activation curve, Jurkat-hu4-1BB-NFκB-luc2 with CHO-k1-human CEACAM5 clone 11 is 162000 and the AUC of activation curve, Jurkat-hu4-1BB-NFκB-luc2 with CHO-k1-human CEACAM5 clone 12 worked out at 164000. Besides, the AUC of activation curve, Jurkat-hu4-1BB-NFκB-luc2, no CEA+ cells in assay [1] came to 2810.

In [2], “CEA(sm9b)-4-1BBL single chain (Fc fusion)” gave an EC50, NFκB-luciferase in Jurkat-hu4-1BB-NFκB-luc2 with CHO-k1-human CEACAM5 clone 11 of 90 pM and an EC50, NFκB-luciferase in Jurkat-hu4-1BB-NFκB-luc2 with CHO-k1-human CEACAM5 clone 12 of 70 pM. In assay [3], this substance had an AUC of activation curve, Jurkat-hu4-1BB-NFκB-luc2 with CHO-k1-cyno CEACAM5 clone 8 of 2820. Besides, in assay [4], the AUC of activation curve, Jurkat-hu4-1BB-NFκB-luc2 with CHO-k1-human CEACAM5 clone 11 is 150000 and the AUC of activation curve, Jurkat-hu4-1BB-NFκB-luc2 with CHO-k1-human CEACAM5 clone 12 turned out to be 146000. Also, the AUC of activation curve, Jurkat-hu4-1BB-NFκB-luc2, no CEA+ cells in [1] amounted to 1980.

As for DP47-4-1BBL (Fc fusion), the AUC in assay [5] amounted to 520; in assay [6], 148; in assay [7], 1300; in assay [8], 11; in assay [9], 752; in assay [10], 700. Moreover, the AUC in assay [11] amounted to 140; in [12] it was 430. Besides, in assay [3], the AUC of activation curve, Jurkat-hu4-1BB-NFκB-luc2 with CHO-k1-cyno CEACAM5 clone 8 was 4710. Besides, the AUC of activation curve, Jurkat-hu4-1BB-NFκB-luc2 with CHO-k1-human CEACAM5 clone 11 in assay [4] was found to be 8640. The substance further displayed an AUC of activation curve, Jurkat-hu4-1BB-NFκB-luc2 with CHO-k1-human CEACAM5 clone 12 in [4] of 6640. The AUC of activation curve, Jurkat-hu4-1BB-NFκB-luc2, no CEA+ cells in [1] stood at 2930.

In assay [13], “P1AD5108-002 DP47 huIgG1 PG LALA (Isotype control) (antibody)” returned an AUC of 420.
